Results taken from US10314894B2, “Treatment of cardio-renal disease using PCSK6” (THE CLEVELAND CLINIC FOUNDATION, priority 2014, dated 2019).
Residue numbers refer to the chain shown, from its start.

Columns and labels:
[1] = biological target: T1, corin variant T555I/Q568P (Homo sapiens, UniProt Q9Y5Q5, Q568P/T555I); experiment: PCSK6-mediated corin activation in HEK293 cells, corin variant T555I/Q568P; assay type: cell-based; conditions: corin T555I/Q568P mutant, Western, densitometry
T1 construct: expressed in transfected cells; host or cells: HEK293
T1 sequence (Q9Y5Q5 1-1042 T555I/Q568P): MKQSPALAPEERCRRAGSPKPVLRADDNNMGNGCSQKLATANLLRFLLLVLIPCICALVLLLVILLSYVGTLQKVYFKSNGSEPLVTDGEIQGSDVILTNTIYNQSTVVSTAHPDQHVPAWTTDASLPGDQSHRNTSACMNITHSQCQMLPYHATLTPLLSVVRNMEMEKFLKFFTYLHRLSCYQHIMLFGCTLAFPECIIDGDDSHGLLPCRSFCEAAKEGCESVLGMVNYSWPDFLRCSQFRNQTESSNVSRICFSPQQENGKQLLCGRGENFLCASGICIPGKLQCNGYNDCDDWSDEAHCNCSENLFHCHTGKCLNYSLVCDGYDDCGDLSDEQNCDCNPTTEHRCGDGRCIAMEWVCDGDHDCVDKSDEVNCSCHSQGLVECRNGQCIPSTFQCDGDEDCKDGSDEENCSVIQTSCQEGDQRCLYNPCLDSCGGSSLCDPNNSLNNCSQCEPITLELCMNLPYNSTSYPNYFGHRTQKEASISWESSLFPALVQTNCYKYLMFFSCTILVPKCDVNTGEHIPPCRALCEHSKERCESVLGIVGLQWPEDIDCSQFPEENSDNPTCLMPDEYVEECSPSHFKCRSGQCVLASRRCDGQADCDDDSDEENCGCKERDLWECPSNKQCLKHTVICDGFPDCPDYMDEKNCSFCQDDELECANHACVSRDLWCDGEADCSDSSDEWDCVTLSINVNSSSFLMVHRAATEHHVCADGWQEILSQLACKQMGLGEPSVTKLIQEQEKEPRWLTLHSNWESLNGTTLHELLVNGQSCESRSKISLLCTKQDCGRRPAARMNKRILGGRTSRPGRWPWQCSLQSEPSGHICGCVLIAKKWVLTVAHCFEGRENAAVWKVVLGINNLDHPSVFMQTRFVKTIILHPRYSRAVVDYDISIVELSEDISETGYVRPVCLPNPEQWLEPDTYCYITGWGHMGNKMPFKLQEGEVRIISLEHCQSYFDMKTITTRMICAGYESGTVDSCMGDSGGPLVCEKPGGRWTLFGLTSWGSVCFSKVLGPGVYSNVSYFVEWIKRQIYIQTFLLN
Excerpt: (§1) Plasmids expressing human corin WT and mutants R801A, S985A, T555I, Q568P, T555I/Q568P, K317E, S472G and R539C were reported previously. Dong, N. et al., J Biol Chem 289, 17909-17916 (2014); Knappe et al., J Biol Chem 278, 52363-52370 (2003); Wu et al., J Biol Chem 277, 16900-16905. (2002). Plasmids expressing human PCSK1-9 were made by cloning respective cDNAs into pcNDA3.1 vector. Recombinant corin and PCSK proteins encoded by these plasmids contained a C-terminal V5 or flag tag for protein detection in Western blotting.
(§2) HEK293 and HL-1 cells were transfected with corin or PCSK6 expression plasmids. After 48-72 h, cells were lysed in a buffer containing 25 mM Tris-HCl, pH 7.4, 150 mM NaCl, 1 mM EDTA, 1% (v/v) NP-40, and 1% (v/v) protease inhibitor cocktail. Recombinant corin and PCSK6 proteins were immunoprecipitated with an anti-V5 or anti-flag antibody. Western blotting was carried out to analyze corin expression and activation or PCSK6 expression with or without reducing agents. Percentage of corin activation (corin-p vs. corin fragments) was quantified by densitometric analysis of Western blots.

corin mutant R539C = biological target: T2, corin mutant R539C (Homo sapiens, UniProt Q9Y5Q5, R539C); experiment: PCSK6-mediated corin activation in HEK293 cells, corin mutant R539C; assay type: cell-based; conditions: Western, densitometry
T2 construct: expressed in transfected cells; host or cells: HEK293
T2 sequence (Q9Y5Q5 1-1042 R539C): T1 sequence (Q9Y5Q5 1-1042 T555I/Q568P) with R539C, I555T, P568Q
Excerpt: as §1, §2

PCSK6-mediated corin activation, reduction vs. WT (in words) [1]: markedly reduced
reduction in PCSK6-mediated corin activation compared with WT corin (corin mutant R539C): 62%
B1: proprotein convertase subtilisin/kexin-6 (protein, listed as Homo sapiens)
chain: MPPRAPPAPGPRPPPRAAAATDTAAGAGGAGGAGGAGGPGFRPLAPRPWRWLLLLALPAACSAPPPRPVYTNHWAVQVLGGPAEADRVAAAHGYLNLGQIGNLEDYYHFYHSKTFKRSTLSSRGPHTFLRMDPQVKWLQQQEVKRRVKRQVRSDPQALYFNDPIWSNMWYLHCGDKNSRCRSEMNVQAAWKRGYTGKNVVVTILDDGIERNHPDLAPNYDSYASYDVNGNDYDPSPRYDASNENKHGTRCAGEVAASANNSYCIVGIAYNAKIGGIRMLDGDVTDVVEAKSLGIRPNYIDIYSASWGPDDDGKTVDGPGRLAKQAFEYGIKKGRQGLGSIFVWASGNGGREGDYCSCDGYTNSIYTISVSSATENGYKPWYLEECASTLATTYSSGAFYERKIVTTDLRQRCTDGHTGTSVSAPMVAGIIALALEANSQLTWRDVQHLLVKTSRPAHLKASDWKVNGAGHKVSHFYGFGLVDAEALVVEAKKWTAVPSQHMCVAASDKRPRSIPLVQVLRTTALTSACAEHSDQRVVYLEHVVVRTSISHPRRGDLQIYLVSPSGTKSQLLAKRLLDLSNEGFTNWEFMTVHCWGEKAEGQWTLEIQDLPSQVRNPEKQGKLKEWSLILYGTAEHPYHTFSAHQSRSRMLELSAPELEPPKAALSPSQVEVPEDEEDYTAQSTPGSANILQTSVCHPECGDKGCDGPNADQCLNCVHFSLGSVKTSRKCVSVCPLGYFGDTAARRCRRCHKGCETCSSRAATQCLSCRRGFYHHQEMNTCVTLCPAGFYADESQKNCLKCHPSCKKCVDEPEKCTVCKEGFSLARGSCIPDCEPGTYFDSELIRCGECHHTCGTCVGPGREECIHCAKNFHFHDWKCVPACGEGFYPEEMPGLPHKVCRRCDENCLSCAGSSRNCSRCKTGFTQLGTSCITNHTCSNADETFCEMVKSNRLCERKLFIQFCCRTCLLAG
modifications: C-terminal FLAG tag
